Test results: patent US20130022592A1, “Continuous subcutaneous insulin infusion methods with a hyaluronan-degrading enzyme” (priority 2011, published 2013)
Entries after “also recorded” stand apart in the source; their conditions may differ. Where two headings read alike, the source gives them in different places.

Experiments:
[1] = cited from earlier work
[2] = Glucodynamics in euglycemic clamps, NovoLog CSII with or without rHuPH20 pretreatment (Example 3); assay type: in vivo, human; conditions: for faster onset of action with rHuPH20 pretreatment / shorter duration of action with rHuPH20 pretreatment: vs without rHuPH20
Description: The subjects were confined to an inpatient setting for three days of study.
Approximately 2 hours after insertion of the new insulin infusion catheter set, a euglycemic glucose clamp experiment was conducted (1′ clamp). […] Blood glucose was clamped at 90% of the fasting level to suppress endogenous insulin release during the study. A 0.15 U/kg bolus was administered through the insulin pump; and the usual individual basal rate was continued during clamps and PK results are thus baseline-subtracted.
During the euglycemic glucose clamp experiment, the subjects were followed for six (6) hours during which blood was drawn and free insulin levels and glucose infusion rates required to maintain euglycemia were determined.
In each experiment, the subjects were followed for six (6) hours during which blood was drawn and free insulin levels and glucose infusion rates required to maintain euglycemia were determined as described above.
(§1) The insulin action profile as a function of time, or glucodynamics, was measured by determining the rate of glucose infusion necessary to maintain euglycemia following the bolus insulin infusion.

[3] = Blood glucose response to standardized evening meal (Example 3); assay type: in vivo, human; conditions: with vs without rHuPH20
Description: (§2) The study was continued to include 15 subjects who completed the study protocol, and was further continued to include 17 subjects who completed the study protocol. The subjects were confined to an inpatient setting for three days of study.

[4] = Glucodynamics in euglycemic clamps, rapid acting insulin analog CSII with rHuPH20 or sham injection (Example 4); assay type: in vivo, human
Description: Patients with type 1 diabetes participated in a randomized, double-blind, 2-way crossover design clinical study comparing the administration of a single hyaluronidase injection at each infusion set change to sham injections in a CSII therapy. The study compared euglycemic clamp endpoints at the beginning and end of 3 days of continuous infusion and glycemic response to a series of four breakfast solid meal challenges. […] In addition, continuous glucose monitoring of the three subjects to compare glucose control in routine outpatient diabetes care also was assessed.
Subjects were released from the CRU the same day.
Subjects returned 3 days later for a second euglycemic clamp after 3 days of continuous infusion. After the clamp experiment the infusion set was changed and the patients discharged. […] Subjects returned to the CRU approximately every 3 days to receive a new infusion set and receive a patient specific standardized breakfast meal and insulin bolus.
as §1

[5] = Routine diabetes management, continuous glucose monitoring (Example 4); assay type: in vivo, human; conditions: three patients; rHuPH20 preadministration
Description: The results are depicted below for the first three subjects that completed the study. In addition, continuous glucose monitoring of the three subjects to compare glucose control in routine outpatient diabetes care also was assessed. […] After the clamp experiment the infusion set was changed and the patients discharged. […] To maintain the double-blind study design, a trained professional not otherwise involved in the study administered either rHuPH20 or a sham injection while the patient looked away. After completion of the phase, patients returned to the CRU within 21 days to repeat these steps with the alternate treatment.

[6] = Adverse events (Example 4); assay type: in vivo, human; conditions: eleven evaluable subjects
Excerpt: 4. […] All were mild and resolved without sequaelae. The most common event was headache (n=4).

[7] = in vivo
Description: as §2
Adverse events were assessed during the course or infusion treatment.

insulin lispro
Duration ([1]; Table 2, Types of Insulins): 3 to 4 h
Onset ([1]; Table 2, Types of Insulins): 0.083 to 0.25 h
Peak ([1]; Table 2, Types of Insulins): 0.75 to 1.5 h

insulin glargine
Duration ([1]; Table 2, Types of Insulins): 28 h
Onset ([1]; Table 2, Types of Insulins): 4 to 6 h
Peak ([1]; Table 2, Types of Insulins): 18 to 28 h

Regular Insulin
Duration ([1]; Table 2, Types of Insulins): 5 to 8 h
onset of action ([1]; administered subcutaneously alone): 30 min

detemir: long-lasting insulin (an analog)
Duration ([1]; Table 2, Types of Insulins): 28 h
Onset ([1]; Table 2, Types of Insulins): 4 to 6 h
Peak ([1]; Table 2, Types of Insulins): 18 to 28 h

Lente
Peak ([1]; in vivo): 6 to 12 h

B1: rHuPH20: soluble recombinant human PH20 hyaluronidase expressed in CHO cells from nucleic acid encoding amino acids 36-482 of SEQ ID NO:1; mixture of SEQ ID NOS:4-9 (protein, listed as Homo sapiens)
chain: LNFRAPPVIPNVPFLWAWNAPSEFCLGKFDEPLDMSLFSFIGSPRINATGQGVTIFYVDRLGYYPYIDSITGVTVNGGIPQKISLQDHLDKAKKDITFYMPVDNLGMAVIDWEEWRPTWARNWKPKDVYKNRSIELVQQQNVQLSLTEATEKAKQEFEKAGKDFLVETIKLGKLLRPNHLWGYYLFPDCYNHHYKKPGYNGSCFNVEIKRNDDLSWLWNESTALYPSIYLNTQQSPVAATLYVRNRVREAIRVSKIPDAKSPLPVFAYTRIVFTDQVLKFLSQDELVYTFGETVALGASGIVIWGTLSIMRSMKSCLLLDNYMETILNPYIINVTLAAKMCSQVLCQEQGVCIRKNWNSSDYLHLNPDNFAIQLEKGGKFTVRGKPTLEDLEQFSEKFYCSCYSTLSCKEKADVKDTDAVDVCIADGVCIDAFLKPPMETEEPQIFY
modifications: mixture of SEQ ID NOS:4-9; precursor human PH20
faster onset of action with rHuPH20 pretreatment ([2]; 15 completers): 9 min
shorter duration of action with rHuPH20 pretreatment ([2]; 15 completers): 27 min
faster onset of action with rHuPH20 pretreatment ([2]; 17 completers): 9 min
shorter duration of action with rHuPH20 pretreatment ([2]; 17 completers): 27 min
differences in early insulin exposure, onset or duration of action over three days of continuous infusion (in words) ([2]; Example 3, rHuPH20 pretreatment): no significant differences
reduction in 2 hour glycemic excursion ([3]; 15 completers): 21 mg/dL
reduction in 2 hour glycemic excursion ([3]; 17 completers): 19 mg/dL
differences in onset or duration of action over three days of continuous infusion (in words) ([4]; Example 4, rHuPH20 pretreatment): no significant differences
faster onset of action with rHuPH20 pretreatment ([4]; vs without rHuPH20): 21 min
shorter duration of action with rHuPH20 pretreatment ([4]; vs without rHuPH20): 30 min
outpatient glucose control (in words) [5]: tighter glucose control
Potential local site reactions (in words) [6]: an abdominal bruise; also recorded: pain at the infusion site; also recorded: a stinging sensation during infusion
subjects with adverse events related to CSII infusion sites (in words) [7]: two subjects
